Measured values reported in IntAct's records for PubMed 25531777.

B1: Rho-related GTP-binding protein Rho6 (Homo sapiens), Q92730 (parent)
chain: MKERRAPQPVVARCKLVLVGDVQCGKTAMLQVLAKDCYPETYVPTVFENYTACLETEEQRVELSLWDTSGSPYYDNVRPLCYSDSDAVLLCFDISRPETVDSALKKWRTEILDYCPSTRVLLIGCKTDLRTDLSTLMELSHQKQAPISYEQGCAIAKQLGAEIYLEGSAFTSEKSIHSIFRTASMLCLNKPSPLPQKSPVRSLSKRLLHLPSRSELISSTFKKEKAKSCSIM

Variants of: B1
Details: with PLXNB1, O43157-1
Chain of PLXNB1, O43157-1 (O43157 whole entry): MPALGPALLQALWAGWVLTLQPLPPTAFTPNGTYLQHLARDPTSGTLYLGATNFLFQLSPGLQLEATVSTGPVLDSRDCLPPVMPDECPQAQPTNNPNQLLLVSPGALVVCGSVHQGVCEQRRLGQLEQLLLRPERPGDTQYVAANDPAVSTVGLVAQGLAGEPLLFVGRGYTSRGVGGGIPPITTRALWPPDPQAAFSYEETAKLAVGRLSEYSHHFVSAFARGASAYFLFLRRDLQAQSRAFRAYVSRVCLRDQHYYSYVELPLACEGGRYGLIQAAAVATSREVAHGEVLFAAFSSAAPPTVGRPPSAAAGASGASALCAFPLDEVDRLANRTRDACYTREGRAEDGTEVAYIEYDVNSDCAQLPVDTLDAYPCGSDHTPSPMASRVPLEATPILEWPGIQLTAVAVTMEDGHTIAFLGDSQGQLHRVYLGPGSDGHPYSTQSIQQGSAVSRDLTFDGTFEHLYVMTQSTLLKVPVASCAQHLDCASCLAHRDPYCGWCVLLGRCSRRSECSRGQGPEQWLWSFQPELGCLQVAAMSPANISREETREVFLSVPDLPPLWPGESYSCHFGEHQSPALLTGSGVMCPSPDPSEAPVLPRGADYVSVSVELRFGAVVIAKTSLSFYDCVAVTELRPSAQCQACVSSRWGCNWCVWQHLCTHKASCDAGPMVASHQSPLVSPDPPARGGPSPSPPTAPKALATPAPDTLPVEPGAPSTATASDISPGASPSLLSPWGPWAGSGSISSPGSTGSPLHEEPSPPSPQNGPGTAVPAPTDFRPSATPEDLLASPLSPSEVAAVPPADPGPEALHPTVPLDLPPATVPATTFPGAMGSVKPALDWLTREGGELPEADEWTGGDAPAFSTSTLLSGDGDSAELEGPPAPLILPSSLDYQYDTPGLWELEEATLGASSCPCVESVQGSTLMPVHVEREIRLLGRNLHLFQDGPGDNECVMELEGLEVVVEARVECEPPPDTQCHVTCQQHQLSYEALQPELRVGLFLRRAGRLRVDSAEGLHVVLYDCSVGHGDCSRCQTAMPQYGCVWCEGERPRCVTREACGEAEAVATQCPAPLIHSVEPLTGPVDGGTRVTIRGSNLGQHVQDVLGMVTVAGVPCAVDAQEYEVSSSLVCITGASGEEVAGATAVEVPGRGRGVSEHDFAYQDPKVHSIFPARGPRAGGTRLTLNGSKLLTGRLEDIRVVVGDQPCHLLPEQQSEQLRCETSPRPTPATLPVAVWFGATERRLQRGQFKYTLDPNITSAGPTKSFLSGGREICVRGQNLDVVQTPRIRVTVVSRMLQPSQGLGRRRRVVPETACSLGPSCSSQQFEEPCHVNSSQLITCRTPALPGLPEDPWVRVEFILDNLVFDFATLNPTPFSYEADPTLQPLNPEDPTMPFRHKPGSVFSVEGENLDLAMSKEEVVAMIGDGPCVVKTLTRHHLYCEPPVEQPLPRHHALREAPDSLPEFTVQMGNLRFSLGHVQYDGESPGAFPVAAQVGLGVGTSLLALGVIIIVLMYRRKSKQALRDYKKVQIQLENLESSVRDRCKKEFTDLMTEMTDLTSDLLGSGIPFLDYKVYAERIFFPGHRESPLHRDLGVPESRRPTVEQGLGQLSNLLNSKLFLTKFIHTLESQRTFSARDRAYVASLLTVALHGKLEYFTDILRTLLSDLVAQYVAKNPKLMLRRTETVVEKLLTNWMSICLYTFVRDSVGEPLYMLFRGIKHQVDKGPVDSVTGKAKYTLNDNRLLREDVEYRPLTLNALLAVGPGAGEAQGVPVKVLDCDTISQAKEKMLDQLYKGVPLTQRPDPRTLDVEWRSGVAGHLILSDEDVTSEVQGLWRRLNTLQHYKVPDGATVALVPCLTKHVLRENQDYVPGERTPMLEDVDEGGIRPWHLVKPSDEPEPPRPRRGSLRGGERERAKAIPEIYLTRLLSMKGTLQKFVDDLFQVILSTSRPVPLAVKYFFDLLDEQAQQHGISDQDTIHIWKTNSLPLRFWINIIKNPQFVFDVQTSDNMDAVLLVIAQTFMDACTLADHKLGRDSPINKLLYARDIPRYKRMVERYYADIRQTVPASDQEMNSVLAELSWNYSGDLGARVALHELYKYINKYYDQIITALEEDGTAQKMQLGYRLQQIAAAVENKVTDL

Row | Variant | effect of a mutation on the interaction
1 | T45A | disrupting interaction strength
2 | E48A | disrupting interaction strength

Variants of: B1
Details: with PLXNB1, O43157-1
Remark: another data set of the same source

Row | Variant | effect of a mutation on the interaction
3 | F180C | disrupting interaction strength
4 | E98D | disrupting interaction strength
5 | G70R | disrupting interaction strength
